± gives the uncertainty stated by the source.
Assay: self-splicing fitness, log relative to wild type (ln ratio); higher = more splicing; Tetrahymena group I intron in knt gene, E. coli kanamycin selection, DiMSum; sequences stand for … in CUCUCU…GGAGGGAAAAGUUAUCAGGCAUGCACCUGGUAGCUAGUCUUUAAACCAAUAGAUUGCAUCGGUUUAAAAGGCAAGACCGUCAAAUUGCGGGAAAGGGGUCAACAGCCGUUCAGUACCAAGUCUCAGGGGAAACUUUGAGAUGGCCUUGCAAAGGGUAUGGUAAUAAGCUGACGGACAUGGUCCUAACCACGCAGCCAAGUCCUAAGUCAACAGAUCUUCUGUUGAUAUGGAUGCAGUUCACAGACUAAAUGUCGGUCGGGGAAGAUGUAUUCUUCUCAUAAGAUAUAGUCGGACCUCUCCUUAAUGGGAGCUAGCGGAUGAAGUGAUGCAACACUGGAGCCGCUGGGAACUAAUUUGUAUGCGAAAGUAUAUUGAUUAGUUUUGGAGUACUCGUGGUCG
Procedure, shortened: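 Pooled colonies went to amplicon sequencing on an Illumina HiSeq 2500 after six replicate transformations. The plates were LB agar with 100 μg/mL carbenicillin, 50 μM IPTG and 0.2% rhamnose, with or without 25 μg/mL kanamycin, incubated overnight at 37°C or 30°C. The E. coli BL21(DE3) library had all eight P1ex-region intron nucleotides randomised, the intron placed in the knt kanamycin-resistance gene on pET-22b(+). DiMSum fitness is the error-weighted combination of replicate fold changes, kanamycin against none, normalised to wild type.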

| Sequence | self-splicing fitness (ln) (30 °C) | self-splicing fitness (ln) (37 °C) |
| --- | --- | --- |
| AGGGAGCAAUAUUACGUGGA | -1.45 ± 0.14 | -2.81 ± 0.26 |
| AUAGAGCAAUAUUACGCAUC | -3.91 ± 0.31 | -2.11 ± 0.25 |
| CAGGAGCAAUAUUACGCUUU | -3.59 ± 0.22 | -1.81 ± 0.17 |
| UCUCAGCAAUAUUACGGUCC | -3 ± 0.31 | – |
| CUCGAGCAAUAUUACGGGAC | -3.8 ± 0.24 | -2.41 ± 0.27 |
| UCUUAGCAAUAUUACGUACA | -2.58 ± 0.19 | -1.28 ± 0.16 |
| GUUGAGCAAUAUUACGUUUA | -3.32 ± 0.28 | -2.33 ± 0.31 |
| UAAUAGCAAUAUUACGUAUC | – | -2.68 ± 0.48 |
| AUUUAGCAAUAUUACGAAUG | -2.39 ± 0.19 | -0.72 ± 0.21 |
| AAACAGCAAUAUUACGCGGU | -3.32 ± 0.23 | -2.18 ± 0.17 |
| GCACAGCAAUAUUACGCUGC | -4.12 ± 0.37 | -2.1 ± 0.3 |
| GCGCAGCAAUAUUACGCUGU | -3.56 ± 0.23 | -2.86 ± 0.34 |
| UAAGAGCAAUAUUACGUGAG | -1.37 ± 0.13 | -0.181 ± 0.23 |
| UAUCAGCAAUAUUACGAGAG | -3.03 ± 0.15 | -0.0372 ± 0.092 |
| AGCAAGCAAUAUUACGAAUA | -2.74 ± 0.26 | -0.872 ± 0.16 |
| CGAAAGCAAUAUUACGUCAC | – | -2.32 ± 0.32 |
| GUAAAGCAAUAUUACGGAUA | -2.72 ± 0.16 | -0.67 ± 0.12 |
| UCUAAGCAAUAUUACGGAUG | -2.9 ± 0.26 | -1.99 ± 0.29 |
| GCUCAGCAAUAUUACGGUGC | -1.82 ± 0.19 | -1.29 ± 0.16 |
| AUAGAGCAAUAUUACGUAGA | -3.41 ± 0.25 | -2.52 ± 0.24 |
| AAUAAGCAAUAUUACGCCAU | -2.76 ± 0.14 | -1.75 ± 0.15 |
| CCGGAGCAAUAUUACGCGCG | -2.44 ± 0.2 | -0.558 ± 0.22 |
| UUUAAGCAAUAUUACGCGAG | -0.722 ± 0.11 | 0.0933 ± 0.13 |
| CCAAAGCAAUAUUACGUCAG | -1.64 ± 0.065 | -0.149 ± 0.08 |
| CAAUAGCAAUAUUACGCAUG | -1.35 ± 0.091 | -0.845 ± 0.11 |
| AAACAGCAAUAUUACGUAAG | -1.23 ± 0.044 | -0.526 ± 0.065 |
| CGAAAGCAAUAUUACGAGAC | – | -2.62 ± 0.24 |

| Sequence | self-splicing fitness (ln) (30 °C) | self-splicing fitness (ln) (37 °C) |
| --- | --- | --- |
| GCGCAGCAAUAUUACGAGUU | -0.986 ± 0.066 | -0.241 ± 0.1 |
| UACGAGCAAUAUUACGUGGG | -3.25 ± 0.14 | -2.88 ± 0.19 |
| UCUUAGCAAUAUUACGACAA | -2.45 ± 0.32 | -1.18 ± 0.29 |
| CGGGAGCAAUAUUACGGUGU | -3.71 ± 0.24 | -2.48 ± 0.25 |
| AGACAGCAAUAUUACGCCCU | -0.687 ± 0.083 | 0.0722 ± 0.1 |
| UUGCAGCAAUAUUACGUUCC | – | -2.16 ± 0.27 |
| GGACAGCAAUAUUACGUGGA | -1.08 ± 0.076 | -1.29 ± 0.075 |
| UUUGAGCAAUAUUACGCGCG | -1.85 ± 0.13 | -0.956 ± 0.19 |
| UUAUAGCAAUAUUACGCUAC | – | -1.33 ± 0.45 |
| UCAUAGCAAUAUUACGGCGU | -3.73 ± 0.14 | -3.17 ± 0.19 |
| GCCGAGCAAUAUUACGUCAG | -3.33 ± 0.16 | -1.87 ± 0.19 |
| AUGCAGCAAUAUUACGGCGG | -1.76 ± 0.068 | -0.59 ± 0.081 |
| CUCCAGCAAUAUUACGCCCU | -3.46 ± 0.34 | -2 ± 0.26 |
| AAUCAGCAAUAUUACGCUUG | -0.11 ± 0.068 | -0.33 ± 0.084 |
| UGGAAGCAAUAUUACGAGGG | – | -1.89 ± 0.34 |
| UACCAGCAAUAUUACGUGGG | -3.76 ± 0.11 | -2.52 ± 0.1 |
| GAUAAGCAAUAUUACGAAGG | -2.27 ± 0.15 | -1.86 ± 0.2 |
| CAGUAGCAAUAUUACGAGUC | -4.27 ± 0.27 | -2.36 ± 0.17 |
| GCUGAGCAAUAUUACGCAAU | -2.2 ± 0.26 | -1.9 ± 0.23 |
| GCGAAGCAAUAUUACGUCCA | -1.16 ± 0.086 | -0.269 ± 0.11 |
| ACGAAGCAAUAUUACGGACG | -1.55 ± 0.13 | -0.00573 ± 0.18 |
| ACCCAGCAAUAUUACGCGAA | -1.26 ± 0.068 | -0.703 ± 0.078 |
| UAUCAGCAAUAUUACGUAAA | -0.89 ± 0.068 | 0.233 ± 0.1 |
| CCAUAGCAAUAUUACGCGGU | -3.9 ± 0.23 | -2.5 ± 0.26 |
| UGUCAGCAAUAUUACGCGAG | -1.31 ± 0.096 | -0.991 ± 0.098 |
| CUAGAGCAAUAUUACGUCGA | -3.94 ± 0.28 | -2.34 ± 0.28 |
| AUUUAGCAAUAUUACGCCAU | -0.966 ± 0.27 | 0.446 ± 0.24 |

| Sequence | self-splicing fitness (ln) (30 °C) | self-splicing fitness (ln) (37 °C) |
| --- | --- | --- |
| GGGGAGCAAUAUUACGUGCG | -1.61 ± 0.14 | -1.54 ± 0.27 |
| UGUGAGCAAUAUUACGUCAC | -3.91 ± 0.47 | – |
| ACUUAGCAAUAUUACGAGUC | – | -3.01 ± 0.35 |
| CGGAAGCAAUAUUACGAGGA | -1.95 ± 0.2 | -1.4 ± 0.19 |
| UAAAAGCAAUAUUACGUCCG | -0.59 ± 0.082 | 0.205 ± 0.1 |
| GUUUAGCAAUAUUACGCGCC | -3.31 ± 0.43 | -2.51 ± 0.44 |
| GACCAGCAAUAUUACGAGAA | -1.67 ± 0.15 | -1.05 ± 0.15 |
| GUACAGCAAUAUUACGUUGU | -3.27 ± 0.15 | -1.99 ± 0.15 |
| CGGGAGCAAUAUUACGUCCU | -2.54 ± 0.25 | – |
| CCCUAGCAAUAUUACGCGAU | -3.74 ± 0.18 | -2.77 ± 0.2 |
| UAUGAGCAAUAUUACGCCAG | -2.96 ± 0.4 | -1.21 ± 0.38 |
| CGAUAGCAAUAUUACGUUGU | -3.45 ± 0.15 | -2.61 ± 0.21 |
| AUAUAGCAAUAUUACGACGG | -2.5 ± 0.17 | -2.5 ± 0.22 |
| AAGCAGCAAUAUUACGAACG | -2.31 ± 0.094 | -0.98 ± 0.11 |
| CGGAAGCAAUAUUACGGCAA | -2.89 ± 0.22 | -1.41 ± 0.18 |
| UGCGAGCAAUAUUACGAGGU | -1.68 ± 0.19 | -2.24 ± 0.28 |
| CGCUAGCAAUAUUACGAUGC | -4.31 ± 0.46 | -2.58 ± 0.36 |
| UUAGAGCAAUAUUACGAACA | -2.48 ± 0.19 | -0.84 ± 0.19 |
| AACCAGCAAUAUUACGGAGA | -1.62 ± 0.086 | -1.5 ± 0.084 |
| UAGAAGCAAUAUUACGGAAG | -2.16 ± 0.22 | -0.543 ± 0.23 |
| UGACAGCAAUAUUACGUCGA | -0.222 ± 0.092 | -0.143 ± 0.098 |
| AUGAAGCAAUAUUACGAUAC | -0.832 ± 0.11 | -1.5 ± 0.17 |
| CGAGAGCAAUAUUACGUAAU | – | -2.01 ± 0.3 |
| ACUUAGCAAUAUUACGAAGG | -2.08 ± 0.12 | -1.33 ± 0.17 |
| UGAAAGCAAUAUUACGGUUC | -4.11 ± 0.26 | -2.41 ± 0.23 |

Reference: the supplement of paper PMC7877785
